From patent publication US20130071379A1 (Merck Sharp & Dohme, published 2013)
One block for each binder: values may come before it.

Assays:
[1] = target: T1, AlexaFluor647-labeled PCSK9; assay: TR-FRET competition assay: 1B20 titrated against 10 nM AF647-PCSK9; the blocked ligand is Eu-sLDLR (about 4 nM); the Ratio falls from about 6200 to about 1000 (right curve, squares)
T1 construct: Used in the TR-FRET assay and in the internalization assay; also called AF647-PCSK9; AF-labeled PCSK9
Experimental: (§1) AlexaFluor647-labeled PCSK9 (final concentration 10 nM) was combined with varying amounts of 1B20 and to this was added Eu(8044)-labeled LDLR ectodomain to a final concentration of ˜4 nM (sufficient to give ˜20,000 counts at F1620 nM on the Rubystar) in […] (pH 7.4), 150 mM NaCl, 0.1 mM CaCl₂, 0.05% (w/v) BSA in a total volume of 50 μL using 96 well black Dynatech U bottom plates. After at least 90 minutes of equilibration, samples were read in a Rubystar reader (BMG Corp.) using 20 flashes per well, a 50 usec integration delay, and a 200 usec total integration time. Data were expressed as the ratio of (F1665/F1620×10000) and an IC₅₀ for 1B20 was determined from the inflection point of a sigmoidal dose-response curve using a standard four parameter fit.

mPCSK9v5His [2] = target: T2, mPCSK9v5His (mouse, UniProt Q80W65 35-694); assay: cell-based or functional assay
hPCSK9v5His [3] = target: T3, hPCSK9v5His (human, UniProt Q8NBP7 31-692); assay: cell-based or functional assay
mPCSK9v5His [4] = target: T2, mPCSK9v5His; assay: SPR Biacore 2000; Fab captured on anti-Fab IgG, PCSK9 in flow
Experimental: (§2) Anti-Fab IgG (Human specific) (Sigma, catalog #15260) was covalently coupled to surfaces 1 and 2 of a Sensor Chip CM5 via primary amine groups, using the immobilization wizard with the “Aim for immobilization” option using Biacore™ Amine Coupling Kit (cat#BR-1000-50. A target immobilization of 5000 RU was specified. The wizard uses a 7 minute activation with a 1:1 mixture of 100 mM NHS (N-Hydroxysuccinimide) and 400 mM EDC (1-ethyl-3-(3-dimethylaminopropyl)-carbodiimide), injects the ligand in several pulses to achieve the desired level, then deactivates the remaining surface with a 7 minute pulse of ethanolamine.
(§3) Anti-PCSK9 Fabs were captured on capture surface 2, and surface 1 was used as a reference for kinetic studies of Fab:PCSK9 interactions. […] 5-10 concentrations of hPCSK9v5H is or mPCSK9v5His antigens were flowed across the surface at […] for 3-4 minutes. 15-60 minutes dissociation time was allowed before regeneration of the Anti-Fab surface with a 30 second pulse of 10 mM glycine pH 2.0.
(§4) BiaEvaluation Software was used to evaluate the sensograms from the multiple concentration of PCSK9 antigen analyzed with each Fab, to estimate the kinetics constants of the Fab:PCSK9 interactions.

hPCSK9v5His [5] = target: T3, hPCSK9v5His; assay: as above
Experimental: as §2, §3, §4

hPCSK9v5His [6] = target: T3, hPCSK9v5His; assay: Bio-Rad ProteOn SPR, Fab against human PCSK9-V5-His
Experimental: Additional site-directed mutant variants of 1B20 were generated (mutations in the heavy chain) and are disclosed herein as SEQ ID NOs: 102-107. Kds of site-directed mutant variants of 1B20 Fabs were determined using a Bio-Rad ProteOn; with affinity being measured against human PCSK9-V5-His. The methodologies for measuring Fab affinities are essentially the same as previously described for Biacore®.

mPCSK9v5His [7] = target: T2, mPCSK9v5His; assay: SPR Biacore 2000; IgG captured on goat anti-human IgG, PCSK9 in flow
Experimental: (§5) A goat Anti-Human IgG (Caltag, catalog #H10700) was covalently coupled to surfaces 1 and 2 of a Sensor Chip CM5 via primary amine groups, using the immobilization wizard with the “Aim for immobilization” option using Biacore™ Amine Coupling Kit (cat#BR-1000-50. A target immobilization of 5000 RU was specified. The wizard uses a 7 minute activation with a 1:1 mixture of 100 mM NHS (N-Hydroxysuccinimide) and 400 mM EDC (1-ethyl-3-(3-dimethylaminopropyl)-carbodiimide), injects the ligand in several pulses to achieve the desired level, then deactivates the remaining surface with a 7 minute pulse of ethanolamine.
(§6) Anti-PCSK9 IgGs were captured on capture surface 2, and surface 1 was used as a reference for kinetic studies of IgG:PCSK9 interactions. IgG was captured by flowing a 10 nM solution at 10 μl/min for 1-1.5 minutes to reach a target RL for an R max of 100-150 RU for the reaction. 5-10 concentrations of hPCSK9v5His or mPCSK9v5His antigens were flowed across the surface at 30 or 60 μl/minute for 4 minutes. 15-60 minutes dissociation time was allowed before regeneration of the Anti-IgG surface with a 60 second pulse of 10 mM Glycine pH 1.7.
(§7) BiaEvaluation Software was used to evaluate the sensograms from the multiple concentration of PCSK9 antigen analyzed with each IgG, to estimate the kinetics constants of the IgG:PCSK9 interactions.

hPCSK9v5His [8] = target: T3, hPCSK9v5His; assay: as above
Experimental: as §5, §6, §7

[9] = target: T1, AlexaFluor647-labeled PCSK9; assay: TR-FRET competition assay: 1B20 titrated against 10 nM AF647-PCSK9; the blocked ligand is Eu-sLDLR (about 4 nM); the Ratio falls from about 6200 to about 1000 (left curve, circles)
Experimental: as §1

T2 sequence (Q80W65 35-694 limits assumed): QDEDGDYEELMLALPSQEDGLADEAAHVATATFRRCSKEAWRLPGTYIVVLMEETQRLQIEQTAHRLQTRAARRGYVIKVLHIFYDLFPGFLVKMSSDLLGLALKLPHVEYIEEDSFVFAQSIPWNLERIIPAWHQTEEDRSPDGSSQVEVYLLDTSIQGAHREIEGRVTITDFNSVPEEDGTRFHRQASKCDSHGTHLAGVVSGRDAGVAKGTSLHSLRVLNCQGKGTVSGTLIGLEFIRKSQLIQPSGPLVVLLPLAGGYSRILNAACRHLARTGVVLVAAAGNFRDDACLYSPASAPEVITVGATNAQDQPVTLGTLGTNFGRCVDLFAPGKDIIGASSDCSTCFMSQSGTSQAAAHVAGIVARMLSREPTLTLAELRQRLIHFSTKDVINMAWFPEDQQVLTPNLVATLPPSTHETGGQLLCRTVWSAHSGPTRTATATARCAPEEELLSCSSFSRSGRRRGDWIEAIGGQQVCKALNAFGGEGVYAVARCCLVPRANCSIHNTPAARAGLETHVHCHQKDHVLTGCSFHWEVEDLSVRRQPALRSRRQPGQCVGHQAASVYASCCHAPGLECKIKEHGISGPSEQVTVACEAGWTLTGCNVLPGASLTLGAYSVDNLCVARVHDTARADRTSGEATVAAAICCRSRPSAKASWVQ
T3 sequence (Q8NBP7 31-692 limits assumed): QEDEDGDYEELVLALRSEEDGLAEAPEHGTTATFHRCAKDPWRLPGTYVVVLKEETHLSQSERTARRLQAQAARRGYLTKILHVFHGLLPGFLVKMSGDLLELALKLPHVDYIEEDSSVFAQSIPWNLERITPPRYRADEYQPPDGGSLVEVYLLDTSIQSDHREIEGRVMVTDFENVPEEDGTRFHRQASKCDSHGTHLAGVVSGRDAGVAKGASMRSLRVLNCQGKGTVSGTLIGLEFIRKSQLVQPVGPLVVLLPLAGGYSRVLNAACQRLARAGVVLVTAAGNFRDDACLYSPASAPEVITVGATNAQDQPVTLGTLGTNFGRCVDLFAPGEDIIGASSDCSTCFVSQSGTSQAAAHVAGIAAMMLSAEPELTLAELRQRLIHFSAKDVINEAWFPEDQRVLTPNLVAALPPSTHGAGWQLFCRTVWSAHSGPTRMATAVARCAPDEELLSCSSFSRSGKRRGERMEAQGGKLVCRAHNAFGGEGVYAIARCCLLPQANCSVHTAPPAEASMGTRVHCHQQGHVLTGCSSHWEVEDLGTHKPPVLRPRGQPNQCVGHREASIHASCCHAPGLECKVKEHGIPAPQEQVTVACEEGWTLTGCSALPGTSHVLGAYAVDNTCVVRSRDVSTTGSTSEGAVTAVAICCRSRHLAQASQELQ
T1 sequence (Q8NBP7 153-692, chain 1 of 2): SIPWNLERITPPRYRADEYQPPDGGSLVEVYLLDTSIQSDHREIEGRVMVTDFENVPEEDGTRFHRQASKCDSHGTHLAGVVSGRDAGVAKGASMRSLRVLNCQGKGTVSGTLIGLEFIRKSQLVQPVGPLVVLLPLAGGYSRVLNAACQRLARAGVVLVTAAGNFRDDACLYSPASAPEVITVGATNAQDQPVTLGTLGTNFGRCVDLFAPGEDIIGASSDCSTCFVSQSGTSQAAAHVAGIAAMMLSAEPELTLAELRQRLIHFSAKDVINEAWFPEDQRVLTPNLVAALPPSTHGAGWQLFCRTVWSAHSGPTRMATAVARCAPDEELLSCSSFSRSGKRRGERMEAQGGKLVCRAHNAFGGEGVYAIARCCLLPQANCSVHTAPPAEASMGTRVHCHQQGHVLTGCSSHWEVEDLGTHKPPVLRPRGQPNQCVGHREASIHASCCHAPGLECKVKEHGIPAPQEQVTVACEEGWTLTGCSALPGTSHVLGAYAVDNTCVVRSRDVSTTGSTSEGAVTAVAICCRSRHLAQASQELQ
T1 sequence (Q8NBP7 31-152, chain 2 of 2): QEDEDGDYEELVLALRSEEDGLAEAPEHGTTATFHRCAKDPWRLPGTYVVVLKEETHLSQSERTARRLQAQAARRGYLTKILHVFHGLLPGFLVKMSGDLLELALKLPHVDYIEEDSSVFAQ

- Ka (mPCSK9v5His [7]): 7.4e+08 M⁻¹
- Kd (mPCSK9v5His [7]): 1.4 nM
- koff (mPCSK9v5His [7]): 0.00012 s⁻¹
- kon (mPCSK9v5His [7]): 89000 M⁻¹ s⁻¹
- Ka (hPCSK9v5His [8]): 1.4e+09 M⁻¹
- Kd (hPCSK9v5His [8]): 0.89 nM
- koff (hPCSK9v5His [8]): 4.3e-05 s⁻¹
- kon (hPCSK9v5His [8]): 53000 M⁻¹ s⁻¹
- IC50 [9]: 2.8 nM
- IC50, inhibition of PCSK9-dependent loss of cellular LDL-uptake (Exopolar assay, HEK cells) (mPCSK9v5His [2]): 13 nM
- IC50, inhibition of PCSK9-dependent loss of cellular LDL-uptake (Exopolar assay, HEK cells) (hPCSK9v5His [3]): 22 nM
B3: 1B20 IgG (antibody, V domains shown)
VH: QVQLVQSGAEVKKPGESLKISCKGSGYSFTNYWISWVRQMPGKGLEWMGIIYPGDSYTNYSPSFQGQVTISADKSISTAYLQWSSLKASDTAMYYCARDYWYKPLFDIWGQGTLVTVSS
VL: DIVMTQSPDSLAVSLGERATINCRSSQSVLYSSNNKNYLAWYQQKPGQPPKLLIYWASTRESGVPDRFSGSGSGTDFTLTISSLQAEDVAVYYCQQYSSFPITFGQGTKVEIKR
notes: Full-length IgG2m4 with kappa light chain, expressed in HEK293 cells, purified on Protein A; also called 1B20 whole IgG; 1B20 IgG2m4

- Kd (hPCSK9v5His [6]): 0.78 nM
B4: 1B20 Fab variant W101Y (Fab, V domains shown)
VH: QVQLVQSGAEVKKPGESLKISCKGSGYSFTNYWISWVRQMPGKGLEWMGIIYPGDSYTNYSPSFQGQVTISADKSISTAYLQWSSLKASDTAMYYCARDYYYKPLFDIWGQGTLVTVSS
VL: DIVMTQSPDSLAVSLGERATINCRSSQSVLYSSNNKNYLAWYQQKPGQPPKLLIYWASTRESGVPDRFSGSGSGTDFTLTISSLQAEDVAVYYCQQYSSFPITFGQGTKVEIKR
notes: Site-directed variant of the 1B20 Fab, 'mutations in the heavy chain'

- Kd (hPCSK9v5His [6]): 1.12 nM
B7: 1B20 Fab variant W101F (Fab, V domains shown)
VH: QVQLVQSGAEVKKPGESLKISCKGSGYSFTNYWISWVRQMPGKGLEWMGIIYPGDSYTNYSPSFQGQVTISADKSISTAYLQWSSLKASDTAMYYCARDYFYKPLFDIWGQGTLVTVSS
VL: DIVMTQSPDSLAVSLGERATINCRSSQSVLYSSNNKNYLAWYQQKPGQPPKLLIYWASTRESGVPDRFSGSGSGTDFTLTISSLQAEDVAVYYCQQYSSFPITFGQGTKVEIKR
notes: as for B4

- Kd (hPCSK9v5His [6]): 1.37 nM
B8: 1B20 Fab variant W101A (Fab, V domains shown)
VH: QVQLVQSGAEVKKPGESLKISCKGSGYSFTNYWISWVRQMPGKGLEWMGIIYPGDSYTNYSPSFQGQVTISADKSISTAYLQWSSLKASDTAMYYCARDYAYKPLFDIWGQGTLVTVSS
VL: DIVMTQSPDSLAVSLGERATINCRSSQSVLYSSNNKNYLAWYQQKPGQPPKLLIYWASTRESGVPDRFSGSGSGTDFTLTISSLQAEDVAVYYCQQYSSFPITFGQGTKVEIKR
notes: as for B4

The remaining lines, values behind:

B1: 1B20 Fab (Fab, V domains shown)
VH: QVQLVQSGAEVKKPGESLKISCKGSGYSFTNYWISWVRQMPGKGLEWMGIIYPGDSYTNYSPSFQGQVTISADKSISTAYLQWSSLKASDTAMYYCARDYWYKPLFDIWGQGTLVTVSS
VL: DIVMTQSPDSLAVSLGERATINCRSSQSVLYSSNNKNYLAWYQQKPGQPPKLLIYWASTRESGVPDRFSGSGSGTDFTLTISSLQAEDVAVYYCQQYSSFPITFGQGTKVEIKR
notes: His-tagged Fab expressed in E. coli and purified by IMAC; also called 6CX1B20
- IC50 [1]: 25.8 nM
- IC50, inhibition of PCSK9-dependent loss of cellular LDL-uptake (Exopolar assay, HEK cells) (mPCSK9v5His [2]): 152 nM
- IC50, inhibition of PCSK9-dependent loss of cellular LDL-uptake (Exopolar assay, HEK cells) (hPCSK9v5His [3]): 145 nM
- Ka (mPCSK9v5His [4]): 2e+09 M⁻¹
- Kd (mPCSK9v5His [4]): 0.51 nM
- koff (mPCSK9v5His [4]): 7.2e-05 s⁻¹
- kon (mPCSK9v5His [4]): 141000 M⁻¹ s⁻¹
- Ka (hPCSK9v5His [5]): 1.5e+09 M⁻¹
- Kd (hPCSK9v5His [5]): 0.74 nM
- koff (hPCSK9v5His [5]): 4.8e-05 s⁻¹
- kon (hPCSK9v5His [5]): 66000 M⁻¹ s⁻¹

B2: 1B20 Fab variant N59K (Fab, V domains shown)
VH: QVQLVQSGAEVKKPGESLKISCKGSGYSFTNYWISWVRQMPGKGLEWMGIIYPGDSYTKYSPSFQGQVTISADKSISTAYLQWSSLKASDTAMYYCARDYWYKPLFDIWGQGTLVTVSS
VL: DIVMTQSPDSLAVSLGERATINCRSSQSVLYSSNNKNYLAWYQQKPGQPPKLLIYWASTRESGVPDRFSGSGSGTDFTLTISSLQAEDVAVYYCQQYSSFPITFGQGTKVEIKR
notes: as for B4
- Kd (hPCSK9v5His [6]): 0.013 nM

B5: 1B20 Fab variant N59R (Fab, V domains shown)
VH: QVQLVQSGAEVKKPGESLKISCKGSGYSFTNYWISWVRQMPGKGLEWMGIIYPGDSYTRYSPSFQGQVTISADKSISTAYLQWSSLKASDTAMYYCARDYWYKPLFDIWGQGTLVTVSS
VL: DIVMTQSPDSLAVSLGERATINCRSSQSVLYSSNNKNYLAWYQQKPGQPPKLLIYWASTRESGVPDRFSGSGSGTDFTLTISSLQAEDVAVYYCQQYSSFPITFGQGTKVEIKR
notes: as for B4
- Kd (hPCSK9v5His [6]): 0.049 nM

B6: 1B20 Fab variant N59Q (Fab, V domains shown)
VH: QVQLVQSGAEVKKPGESLKISCKGSGYSFTNYWISWVRQMPGKGLEWMGIIYPGDSYTQYSPSFQGQVTISADKSISTAYLQWSSLKASDTAMYYCARDYWYKPLFDIWGQGTLVTVSS
VL: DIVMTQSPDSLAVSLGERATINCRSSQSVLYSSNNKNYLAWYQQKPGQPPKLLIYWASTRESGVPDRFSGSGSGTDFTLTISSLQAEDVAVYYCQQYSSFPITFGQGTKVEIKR
notes: as for B4
- Kd (hPCSK9v5His [6]): 0.117 nM
